The numbers were not newly measured in PMC5871566, which cites them from elsewhere.

The target in data set [1] is C4b (Homo sapiens) (UniProt P0C0L4).
Data set [2] has the same target. This is another data set of the same source.

Read-outs that look alike come from different tables or passages of the source.

Sequence of UniProt P0C0L4 (P0C0L4 20-1744, chain 1 of 2): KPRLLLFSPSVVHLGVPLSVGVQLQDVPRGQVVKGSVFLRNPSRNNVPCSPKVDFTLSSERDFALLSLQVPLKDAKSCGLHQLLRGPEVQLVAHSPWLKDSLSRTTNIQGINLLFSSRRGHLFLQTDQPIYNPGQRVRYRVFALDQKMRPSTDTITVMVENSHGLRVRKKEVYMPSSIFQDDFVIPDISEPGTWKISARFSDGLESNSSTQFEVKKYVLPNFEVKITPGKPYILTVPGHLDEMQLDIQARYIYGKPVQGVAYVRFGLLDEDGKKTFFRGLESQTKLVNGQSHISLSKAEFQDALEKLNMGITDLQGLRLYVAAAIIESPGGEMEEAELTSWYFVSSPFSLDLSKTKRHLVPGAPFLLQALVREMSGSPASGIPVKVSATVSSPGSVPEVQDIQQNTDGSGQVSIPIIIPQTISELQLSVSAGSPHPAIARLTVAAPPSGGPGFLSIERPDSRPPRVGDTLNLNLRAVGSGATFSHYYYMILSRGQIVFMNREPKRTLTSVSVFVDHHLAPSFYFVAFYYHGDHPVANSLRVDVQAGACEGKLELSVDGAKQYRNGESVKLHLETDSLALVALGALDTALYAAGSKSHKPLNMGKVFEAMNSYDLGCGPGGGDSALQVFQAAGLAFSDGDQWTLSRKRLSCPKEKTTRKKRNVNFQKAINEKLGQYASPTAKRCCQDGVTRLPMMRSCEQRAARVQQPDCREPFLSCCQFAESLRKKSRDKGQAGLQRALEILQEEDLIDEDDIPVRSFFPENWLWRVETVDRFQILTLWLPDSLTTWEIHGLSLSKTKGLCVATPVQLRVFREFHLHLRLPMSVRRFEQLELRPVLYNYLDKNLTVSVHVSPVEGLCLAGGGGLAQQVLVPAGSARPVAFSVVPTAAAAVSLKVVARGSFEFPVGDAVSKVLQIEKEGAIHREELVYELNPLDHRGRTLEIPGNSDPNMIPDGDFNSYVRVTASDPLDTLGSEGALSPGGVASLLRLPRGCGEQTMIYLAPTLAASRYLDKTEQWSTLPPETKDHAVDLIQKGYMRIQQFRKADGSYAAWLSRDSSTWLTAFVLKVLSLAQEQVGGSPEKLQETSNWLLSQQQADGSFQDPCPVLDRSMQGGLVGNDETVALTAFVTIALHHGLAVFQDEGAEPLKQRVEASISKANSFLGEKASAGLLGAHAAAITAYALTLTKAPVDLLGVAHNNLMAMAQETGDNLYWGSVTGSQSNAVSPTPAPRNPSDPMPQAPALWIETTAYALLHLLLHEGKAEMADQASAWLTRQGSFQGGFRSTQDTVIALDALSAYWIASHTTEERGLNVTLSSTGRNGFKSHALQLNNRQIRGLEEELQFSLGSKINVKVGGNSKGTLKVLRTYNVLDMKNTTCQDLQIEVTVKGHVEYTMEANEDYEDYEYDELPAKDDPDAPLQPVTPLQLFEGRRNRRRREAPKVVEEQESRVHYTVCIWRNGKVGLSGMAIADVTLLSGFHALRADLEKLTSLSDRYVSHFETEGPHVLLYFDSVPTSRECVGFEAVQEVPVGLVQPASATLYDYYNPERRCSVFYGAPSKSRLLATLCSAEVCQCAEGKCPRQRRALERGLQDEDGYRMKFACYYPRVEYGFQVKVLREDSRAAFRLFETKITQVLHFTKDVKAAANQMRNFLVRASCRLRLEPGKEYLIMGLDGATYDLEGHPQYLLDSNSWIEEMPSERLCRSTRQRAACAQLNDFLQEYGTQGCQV
Sequence of UniProt P0C0L4 (P0C0L5 20-1744, chain 2 of 2, further chain): as the sequence (P0C0L4 20-1744, chain 1 of 2) above, with A888T, D1054G, P1101L, C1102S, L1105I, D1106H, N1157S, V1188A, L1191R, S1267A counted along it

As a reminder, the Kd is a measure of binding affinity in units of concentration. In the case of Eap34 domains 3-4 (from UniProt Q99QS1), in the data set with C4b (Homo sapiens) [1], the Kd is 0.525 µM.

“Eap individual domains (domain 3 or 4) domain 3 or domain 4 (from UniProt Q2FWW1)”: the equilibrium dissociation constant (Kd) with C4b (Homo sapiens) [2] is 40 µM.
